Assay results reported in patent US20050043235A1 (LICENTIA, published 2005).
Blank lines part the entries; values can stand above or below the binder they belong to.

Key:
VEGFR-1-Ig = target: T1, VEGFR-1-Ig (UniProt P17948 27-553); test: precipitation of 35S-labelled protein with VEGFR-1-Ig, SDS-PAGE (FIG. 5B)
T1 construct: not shown: Ig part of the fusion, not described

neuropilin-1-Ig = target: T2, neuropilin-1-Ig (UniProt O14786 22-856); test: precipitation of 35S-labelled protein with neuropilin-1-Ig, SDS-PAGE (FIG. 5A)
T2 construct: also called NP1; NP-1; not shown: Ig part of the fusion, not described
T2 sequence (looked up): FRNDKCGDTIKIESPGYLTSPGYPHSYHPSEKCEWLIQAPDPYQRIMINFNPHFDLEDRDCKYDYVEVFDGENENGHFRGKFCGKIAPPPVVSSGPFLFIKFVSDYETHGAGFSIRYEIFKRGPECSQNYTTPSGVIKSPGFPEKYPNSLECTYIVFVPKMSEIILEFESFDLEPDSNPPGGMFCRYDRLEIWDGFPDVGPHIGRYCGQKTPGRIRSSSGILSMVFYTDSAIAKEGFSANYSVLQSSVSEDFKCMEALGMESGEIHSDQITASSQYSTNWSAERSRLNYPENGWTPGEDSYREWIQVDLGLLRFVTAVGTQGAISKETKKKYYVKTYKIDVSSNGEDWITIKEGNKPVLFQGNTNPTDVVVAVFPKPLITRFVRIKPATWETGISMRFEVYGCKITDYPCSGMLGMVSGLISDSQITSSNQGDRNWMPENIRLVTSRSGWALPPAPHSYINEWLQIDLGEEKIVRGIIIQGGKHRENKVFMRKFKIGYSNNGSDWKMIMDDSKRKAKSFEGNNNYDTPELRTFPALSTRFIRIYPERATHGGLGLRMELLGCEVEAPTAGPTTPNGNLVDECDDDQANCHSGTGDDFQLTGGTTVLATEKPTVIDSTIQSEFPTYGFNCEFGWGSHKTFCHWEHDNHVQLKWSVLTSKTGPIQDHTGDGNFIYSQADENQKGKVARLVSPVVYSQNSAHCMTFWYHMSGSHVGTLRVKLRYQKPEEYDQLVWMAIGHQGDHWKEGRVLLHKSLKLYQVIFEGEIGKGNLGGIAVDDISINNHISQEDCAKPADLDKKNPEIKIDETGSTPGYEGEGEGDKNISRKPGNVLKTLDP

T1 sequence (P17948 27-553): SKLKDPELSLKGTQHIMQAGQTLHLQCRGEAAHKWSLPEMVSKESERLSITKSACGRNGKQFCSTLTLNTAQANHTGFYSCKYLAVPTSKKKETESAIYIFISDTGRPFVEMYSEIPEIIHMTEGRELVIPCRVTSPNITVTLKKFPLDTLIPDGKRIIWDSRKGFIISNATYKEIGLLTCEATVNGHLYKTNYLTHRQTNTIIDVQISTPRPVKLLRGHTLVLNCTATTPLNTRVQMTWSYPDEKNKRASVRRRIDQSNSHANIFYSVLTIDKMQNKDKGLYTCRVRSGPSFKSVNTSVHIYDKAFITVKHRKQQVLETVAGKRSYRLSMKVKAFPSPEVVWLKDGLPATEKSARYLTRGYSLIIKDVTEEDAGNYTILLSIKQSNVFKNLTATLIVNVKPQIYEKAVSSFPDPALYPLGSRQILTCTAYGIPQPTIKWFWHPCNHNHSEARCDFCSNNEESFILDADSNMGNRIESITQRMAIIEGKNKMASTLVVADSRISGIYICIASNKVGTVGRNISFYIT

binding result (VEGFR-1-Ig): no binding
binding result (neuropilin-1-Ig): no binding
B1: VEGF-CΔNΔC (ligand)
chain: TEETIKFAAAHYNTEILKSIDNEWRKTQCMPREVCIDVGKEFGVATNTFFKPPCVSVYRCGGCCNSEGLQCMNTSTSYLSKTLFEITVPLSQGPKPVTISFANHTSCRCMSKLDVYRQVHSIIRR
notes: also called N C; VEGF-C short form

binding result (VEGFR-1-Ig): no binding
B2: CA65, chimeric protein of the VEGF homology domain of VEGF-C and VEGF exon 7-8 encoded sequences (ligand)
chain: TEETIKFAAAHYNTEILKSIDNEWRKTQCMPREVCIDVGKEFGVATNTFFKPPCVSVYRCGGCCNSEGLQCMNTSTSYLSKTLFEITVPLSQGPKPVTISFANHTSCRCMSKLDVYRQVHSIIRRPCGPCSERRKHLFVQDPQTCKCSCKNTDSRCKARQLELNERTCRCDKPRR
notes: Exon 7-8 is used here; also called pEBS7/CA65; pREP7/CA65

binding result (VEGFR-1-Ig): no binding
B3: CA89, chimeric protein of the VEGF homology domain of VEGF-C and VEGF exon 6-8 encoded sequences (ligand)
chain: TEETIKFAAAHYNTEILKSIDNEWRKTQCMPREVCIDVGKEFGVATNTFFKPPCVSVYRCGGCCNSEGLQCMNTSTSYLSKTLFEITVPLSQGPKPVTISFANHTSCRCMSKLDVYRQVHSIIRRKSVRGKGKGQKRKRKKSRYKSWSVPCGPCSERRKHLFVQDPQTCKCSCKNTDSRCKARQLELNERTCRCDKPRR
notes: CA89 is released only with heparin in the medium; also called pEBS7/CA89; pREP7/CA89
